Experimental data reported in patent publication US20240075157A1.

Key:
[1] = biological target: cynomolgus FcγRI (cyno FcγR1) (cynomolgus); test: BLI, His-cyno FcR1
hFcγR2A 167H (human) [2] = biological target: hFcγR2A 167H (human) (UniProt P12318); test: BLI, Hu Fc2A 167H
hFcγR2B (human) [3] = biological target: hFcγR2B (human) (UniProt P31994); test: BLI, Hu Fc2B
[4] = biological target: human FcγR1 (hFcγR1) (human) (UniProt P12314); test: BLI, Hu Fc1
hFcγR3A 176V (human) = hFcγR3A 176V (human) (UniProt P08637); test: BLI, Hu Fc3A 176V
Sequence of hFcγR3A 176V (human) (P08637 17-208 F176V limits assumed): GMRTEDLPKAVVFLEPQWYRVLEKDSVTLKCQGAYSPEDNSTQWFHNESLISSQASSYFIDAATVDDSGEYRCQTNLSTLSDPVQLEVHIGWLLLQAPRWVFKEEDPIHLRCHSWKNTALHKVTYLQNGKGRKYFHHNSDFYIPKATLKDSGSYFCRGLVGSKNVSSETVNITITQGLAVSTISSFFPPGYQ

hFcγR2A 167R (human) [5] = biological target: hFcγR2A 167R (human) (UniProt P12318); test: BLI, Hu Fc2A 167R
Sequence of hFcγR2A 167R (human) (P12318 36-218 H167R): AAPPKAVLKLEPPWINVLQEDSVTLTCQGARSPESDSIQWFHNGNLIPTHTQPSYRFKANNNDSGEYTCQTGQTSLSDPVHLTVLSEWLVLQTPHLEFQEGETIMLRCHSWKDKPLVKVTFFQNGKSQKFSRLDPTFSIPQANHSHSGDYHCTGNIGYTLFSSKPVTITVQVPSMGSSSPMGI

Hu Fc3A 176F = test: BLI, Hu Fc3A 176F
Sequence of Hu Fc3A 176F (chain, as listed by the source limits assumed): as the sequence (P08637 17-208 F176V limits assumed) above, with V160F counted along it

[6] = biological target: human FcγR1 (hFcγR1) (human) (UniProt P12314); test: BLI, His-hFcR1
hFcγR2B (human) [7] = biological target: hFcγR2B (human) (UniProt P31994); test: BLI, Bio-hFcR2B
[8] = biological target: human FcγR1 (hFcγR1) (human) (UniProt P12314); test: BLI, Bio-hFcR1
hFcγR2A 167R (human) [9] = biological target: hFcγR2A 167R (human) (UniProt P12318); test: BLI, Bio-hFcR2A 167R
hFcγR2A 167H (human) [10] = biological target: hFcγR2A 167H (human) (UniProt P12318); test: BLI, Bio hFcR2A 167H
[11] = biological target: human FcγR1 (hFcγR1) (human) (UniProt P12314); test: BLI, FcR1, 10nM IgG
hFcγR2B (human) [12] = biological target: hFcγR2B (human) (UniProt P31994); test: BLI, FcR2B, 600nM IgG
hFcγR3B (human) [13] = biological target: hFcγR3B (human) (UniProt O75015); test: BLI, FcR3B, 600nM IgG
Sequence of hFcγR3B (human) (O75015 17-200 limits assumed): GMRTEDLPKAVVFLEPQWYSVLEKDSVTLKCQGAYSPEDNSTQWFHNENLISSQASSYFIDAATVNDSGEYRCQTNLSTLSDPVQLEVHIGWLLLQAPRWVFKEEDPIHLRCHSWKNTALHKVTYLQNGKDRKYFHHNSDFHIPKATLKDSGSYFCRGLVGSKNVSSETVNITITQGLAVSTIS

hFcγR2B (human) [14] = biological target: hFcγR2B (human) (UniProt P31994); test: BLI, FcR2B, 450nM IgG
hFcγR2A 167H (human) [15] = biological target: hFcγR2A 167H (human) (UniProt P12318); test: BLI, FcR2A 167H, 600nM IgG
hFcγR2A 167H (human) [16] = biological target: hFcγR2A 167H (human) (UniProt P12318); test: BLI, FcR2A 167H, 450nM IgG
[17] = biological target: human FcγR1 (hFcγR1) (human) (UniProt P12314); test: BLI, FcR1, 25nM IgG
hFcγR2A 167R (human) [18] = biological target: hFcγR2A 167R (human) (UniProt P12318); test: BLI, FcR2A 167R, 600nM IgG
[19] = biological target: human FcγR1 (hFcγR1) (human) (UniProt P12314); test: BLI, FcR1, 50nM IgG
hFcγR2A 167R (human) [20] = biological target: hFcγR2A 167R (human) (UniProt P12318); test: BLI, FcR2A 167R, 450nM IgG
hFcγR3B (human) [21] = biological target: hFcγR3B (human) (UniProt O75015); test: BLI, FcR3B, 450nM IgG

Sequence of hFcγR2B (human) (P31994 46-217): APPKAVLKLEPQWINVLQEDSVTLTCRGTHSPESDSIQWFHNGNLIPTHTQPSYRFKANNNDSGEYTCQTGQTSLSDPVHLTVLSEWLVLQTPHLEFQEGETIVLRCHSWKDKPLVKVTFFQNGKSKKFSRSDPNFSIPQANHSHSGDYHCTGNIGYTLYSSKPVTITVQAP
Sequence of hFcγR2A 167H (human) (P12318 36-218): as the sequence (P12318 36-218 H167R) above, with R132H counted along it
Sequence of cynomolgus FcγRI (cyno FcγR1) (cynomolgus) (A0A2K5 entry or part of it limits assumed): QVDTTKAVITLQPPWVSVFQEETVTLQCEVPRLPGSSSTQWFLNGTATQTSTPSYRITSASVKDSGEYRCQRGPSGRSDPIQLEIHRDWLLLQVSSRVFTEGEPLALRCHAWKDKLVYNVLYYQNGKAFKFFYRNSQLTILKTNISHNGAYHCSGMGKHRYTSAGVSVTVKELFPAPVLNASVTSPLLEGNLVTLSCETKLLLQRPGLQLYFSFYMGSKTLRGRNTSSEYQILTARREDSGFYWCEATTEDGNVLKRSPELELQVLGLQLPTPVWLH
Sequence of human FcγR1 (hFcγR1) (human) (P12314 16-288 limits assumed): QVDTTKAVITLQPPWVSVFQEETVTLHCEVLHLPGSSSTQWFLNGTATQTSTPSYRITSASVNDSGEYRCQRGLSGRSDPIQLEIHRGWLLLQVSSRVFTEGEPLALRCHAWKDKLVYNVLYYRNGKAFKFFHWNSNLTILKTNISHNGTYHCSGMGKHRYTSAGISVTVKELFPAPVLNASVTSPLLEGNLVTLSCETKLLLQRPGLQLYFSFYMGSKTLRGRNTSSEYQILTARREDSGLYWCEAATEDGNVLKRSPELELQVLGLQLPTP

Ab2 D265C N297Q (antibody)
Normalized Response [1]: 7 % of WT

Ab2 D265C N297Q H435A (antibody)
Normalized Response [1]: 7 % of WT

Ab5 (anti-CD45 antibody) D265A variant
normalized binding response (hFcγR2A 167H (human) [2]): 2 % of WT | normalized binding response (hFcγR2B (human) [3]): 2 % of WT | normalized binding response [4]: 40 % of WT

Ab5 (anti-CD45 antibody) D265C.N297A.H435A variant
normalized binding response (hFcγR2B (human) [3]): 2 % of WT

Ab5 (anti-CD45 antibody) LALA variant
normalized binding response (hFcγR3A 176V (human)): 34 % of WT | normalized binding response (hFcγR2A 167H (human) [2]): 4 % of WT | normalized binding response (hFcγR2B (human) [3]): 3 % of WT | normalized binding response (hFcγR2A 167R (human) [5]): 2 % of WT | normalized binding response (Hu Fc3A 176F): 19 % of WT

Ab5 CH2 deleted (antibody)
normalized binding response (hFcγR2B (human) [3]): 1 % of WT

Ab5 D265A.H435A (antibody)
normalized binding response (hFcγR2A 167H (human) [2]): 3 % of WT | normalized binding response (hFcγR2B (human) [3]): 1 % of WT | normalized binding response [4]: 35 % of WT

Ab5 D265C.H435A (antibody)
normalized binding response (hFcγR2B (human) [3]): 3 % of WT | normalized binding response [4]: 33 % of WT

Ab5 D265C.LALA.P329G.H435A (antibody)
normalized binding response (Hu Fc3A 176F): 1 % of WT | normalized binding response [4]: 4 % of WT

Ab5 EPLVLAdelG (antibody)
normalized binding response (hFcγR3A 176V (human)): 16 % of WT | normalized binding response (hFcγR2A 167H (human) [2]): 66 % of WT | normalized binding response (hFcγR2B (human) [3]): 10 % of WT | normalized binding response (hFcγR2A 167R (human) [5]): 15 % of WT | normalized binding response (Hu Fc3A 176F): 9 % of WT | normalized binding response [4]: 1 % of WT

Ab5 LALA.P329G (antibody)
normalized binding response (hFcγR2A 167R (human) [5]): 2 % of WT

Ab5 LALA.P331G (antibody)
normalized binding response (hFcγR2B (human) [3]): 8 % of WT | normalized binding response (hFcγR2A 167R (human) [5]): 1 % of WT

Isotype WT (antibody)
Normalized Response [6]: 85 % of WT | Normalized Response (hFcγR2B (human) [7]): 95 % of WT | Normalized Response [8]: 91 % of WT | Normalized Response (hFcγR2A 167R (human) [9]): 102 % of WT | Normalized Response (hFcγR2A 167H (human) [10]): 90 % of WT | Normalized Response [1]: 82 % of WT

YTH24.5 (anti-CD45 rIgG2b) (antibody)
normalized binding response (hFcγR2A 167H (human) [2]): 150 % of WT | normalized binding response (hFcγR2B (human) [3]): 120 % of WT | normalized binding response (hFcγR2A 167R (human) [5]): 56 % of WT | normalized binding response (Hu Fc3A 176F): 62 % of WT | normalized binding response [4]: 121 % of WT

naked (un-conjugated) antibody (i.e., the isotype control) of FIGS. 1D and 1E
% Binding vs Wild Type hIgG1 [11]: 100% | % Binding vs Wild Type hIgG1 (hFcγR2B (human) [12]): 100% | % Binding vs Wild Type hIgG1 (hFcγR3B (human) [13]): 100% | % Binding vs Wild Type hIgG1 (hFcγR2B (human) [14]): 100% | % Binding vs Wild Type hIgG1 (hFcγR2A 167H (human) [15]): 100% | % Binding vs Wild Type hIgG1 (hFcγR2A 167H (human) [16]): 100% | % Binding vs Wild Type hIgG1 [17]: 100% | % Binding vs Wild Type hIgG1 (hFcγR2A 167R (human) [18]): 100% | % Binding vs Wild Type hIgG1 [19]: 100% | % Binding vs Wild Type hIgG1 (hFcγR2A 167R (human) [20]): 100% | % Binding vs Wild Type hIgG1 (hFcγR3B (human) [21]): 100%

rIgG2a (rat IgG2a isotype control) (antibody)
normalized binding response (hFcγR2A 167H (human) [2]): 3 % of WT | normalized binding response (hFcγR2B (human) [3]): 8 % of WT | normalized binding response (hFcγR2A 167R (human) [5]): 74 % of WT | normalized binding response (Hu Fc3A 176F): 1 % of WT
